Assay results taken from paper PMC3737412, “Species-Specific and Cross-Reactive IgG1 Antibody Binding to Viral Capsid Protein 1 (VP1) Antigens of Human Rhinovirus Species A, B and C” (PLoS ONE, 2013).

How the values were obtained:
Experiment in all cases: SEC
[1] = target: Recombinant GST-fusion HRV-A34 VP1 with a C-terminal histidine tag (human rhinovirus A34 (HRV-A species))
[2] = target: Recombinant GST-fusion HRV-B69 VP1 with a C-terminal histidine tag (human rhinovirus B69 (HRV-B species))
[3] = target: Recombinant GST-fusion HRV-C3 VP1 with a C-terminal histidine tag (human rhinovirus C3 (HRV-C species))
[4] = target: Recombinant GST-fusion HRV-C5 VP1 with a C-terminal histidine tag (human rhinovirus C5 (HRV-C species))
[5] = target: Recombinant GST-fusion human poliovirus (HPV) Sabin VP1 with a C-terminal histidine tag (human poliovirus Sabin)
SEC = target: the molecule itself

Recombinant GST-fusion HRV-A34 VP1 with a C-terminal histidine tag (natural protein)
stoichiometry N [1]: 10

Recombinant GST-fusion HRV-B69 VP1 with a C-terminal histidine tag (natural protein)
stoichiometry N [2]: 10

Recombinant GST-fusion HRV-C3 VP1 with a C-terminal histidine tag (natural protein)
stoichiometry N [3]: 10

Recombinant GST-fusion HRV-C5 VP1 with a C-terminal histidine tag (natural protein)
stoichiometry N [4]: 10

Recombinant GST-fusion human poliovirus (HPV) Sabin VP1 with a C-terminal histidine tag (natural protein)
stoichiometry N [5]: 10

B1: Recombinant GST-fusion HRV-B14 VP1 with a C-terminal histidine tag (natural protein)
chain: TVALTEGLGDELEEVIVEKTKQTVASISSGPKHTQKVPILTANETGATMPVLPSDSIETRTTYMHFNGSETDVECFLGRAACVHVTEIQNKDATGIDNHREAKLFNDWKINLSSLVQLRKKLELFTYVRFDSEYTILATASQPDSANYSSNLVVQAMYVPPGAPNPKEWDDYTWQSASNPSVFFKVGDTSRFSVPYVGLASAYNCFYDGYSHDDAETQYGITVLNHMGSMAFRIVNEHDEHKTLVKIRVYHRAKHVEAWIPRAPRALPYTSIGRTNYPKNTEPVIKKRKGDIKSY
stoichiometry N (SEC): ~10

B2: Recombinant GST-fusion HRV-A1B VP1 with a C-terminal histidine tag (natural protein)
chain: SGPIEQNPVENYIDEVLNEVLVVPNIKESHHTTSNSAPLLDAAETGHTSNVQPEDAIETRYVMTSQTRDEMSIESFLGRSGCVHISRIKVDYNDYNGVNKNFTTWKITLQEMAQIRRKFELFTYVRFDSEVTLVPCIAGRGDDIGHVVMQYMYVPPGAPIPKTRNDFSWQSGTNMSIFWQHGQPFPRFSLPFLSIASAYYMFYDGYDGDNSSSKYGSIVTNDMGTICSRIVTEKQEHPVVITTHIYHKAKHTKAWCPRPPRAVPYTHSRVTNYVPKTGDVTTAIVPRASMKTV
stoichiometry N (SEC): ~10
